{"source": "paper PMC10638201", "about": "“Application of electrospun chitosan-based nanofibers as immobilization matrix for biomolecules” (Applied Microbiology and Biotechnology, 2023)", "target": "6xHis-eugenol-oxidase-StrepTag-II (recombinant eugenol oxidase from Rhodococcus jostii) (Rhodococcus sp. RHA1)", "assay": "SEC; pure EUGO on Superdex 200 10/300 GL (AKTA Pure), 100 uL loaded, 0.5 mL/min, running buffer 50 mM Tris-Base pH 8 with 150 mM NaCl; size estimated from a protein standard mix (15-600 kDa)"}
{"substance": "6xHis-eugenol-oxidase-StrepTag-II (recombinant eugenol oxidase from Rhodococcus jostii) (enzyme)", "values": [{"measurement": "stoichiometry N", "value": 2}]}
